The nature of data set [1]: Half-life of XTEN_AG864 in cynomolgus monkeys. It counts as in vivo. From the text: The methods and materials utilized were adapted from those of Example 1, above.
The nature of data set [2]: Analytical size exclusion chromatography of XTEN fusion proteins. Format: physicochemical. The settings on record: for RH (nm), hydrodynamic radius / Apparent MW (kDa): SEC; for Apparent MW (kDa): BioRad calibration standard; for Apparent Molecular Weight Factor: ratio of apparent molecular weight to calculated molecular weight.
Data set [3] in a line: Biodegradation of XTEN in rat plasma, rat kidney homogenate and PBS buffer (SDS-PAGE). It counts as in vitro ADME. The note with it: 0.3 mg/ml. On the procedure:
Purified XTEN_AE864 protein was incubated at a final concentration of 0.3 mg/ml in rat plasma (Bioreclamation IVT, Baltimore, Md.), rat kidney homogenate (Bioreclamation), or PBS buffer for up to 7 days at 37° C. Samples were withdrawn at time 0, 4 hours, 24 hours, and 7 days, were immediately frozen and stored at -80° C., then thawed right before analysis. XTEN was extracted from the samples by methanol precipitation. Briefly, methanol pre-chilled at −20° C. was added to the samples at a volume ratio of 2:1 and mixed by vortex. The mixture was kept at −20° C. for 30 min and then centrifuged at 14,000 rpm for 20 min at 8° C. The supernatant was subjected to centrifugal evaporation for 1-2 hours to take the sample to complete dryness, and was then resuspended in PBS buffer to the original volume before methanol extraction. The reconstituted samples were analyzed by SDS-PAGE with staining using Stains-all.

The target in data set [4] is T1, human neutrophil elastase (Homo sapiens, UniProt P08246).
T1 construct: purchased R&D Systems
T1 sequence (P08246 30-267): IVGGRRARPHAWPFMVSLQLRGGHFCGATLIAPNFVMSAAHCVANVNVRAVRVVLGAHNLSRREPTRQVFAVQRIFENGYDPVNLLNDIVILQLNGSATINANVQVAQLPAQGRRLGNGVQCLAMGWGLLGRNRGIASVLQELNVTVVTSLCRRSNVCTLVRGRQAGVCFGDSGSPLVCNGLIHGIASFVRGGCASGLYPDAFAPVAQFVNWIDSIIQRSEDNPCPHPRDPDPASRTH
Put plainly: Neutrophil elastase digestion of XTEN_AE864 (SDS-PAGE). Format: biochemical. The note with it: 10 μM XTEN, 37° C., 2 hours. On the procedure:
It had been speculated that neutrophil elastase, a serine protease with broad substrate specificity, may be able to degrade XTEN. […] 10 μM of purified XTEN_AE864 was incubated with 1:1000 or 1:100 molar ratio (elastase:XTEN) of human neutrophil elastase (R&D Systems) at 37° C. for 2 hours. Samples before and after digestion were analyzed on SDS-PAGE gel followed with coomassie staining (FIG. 86).

B1: XTEN_AG864: extended recombinant polypeptide of 864 amino acids, AG motif family (protein)
chain: GASPGTSSTGSPGSSPSASTGTGPGSSPSASTGTGPGTPGSGTASSSPGSSTPSGATGSPGSSPSASTGTGPGASPGTSSTGSPGTPGSGTASSSPGSSTPSGATGSPGTPGSGTASSSPGASPGTSSTGSPGASPGTSSTGSPGTPGSGTASSSPGSSTPSGATGSPGASPGTSSTGSPGTPGSGTASSSPGSSTPSGATGSPGSSPSASTGTGPGSSPSASTGTGPGSSTPSGATGSPGSSTPSGATGSPGASPGTSSTGSPGASPGTSSTGSPGASPGTSSTGSPGTPGSGTASSSPGASPGTSSTGSPGASPGTSSTGSPGASPGTSSTGSPGSSPSASTGTGPGTPGSGTASSSPGASPGTSSTGSPGASPGTSSTGSPGASPGTSSTGSPGSSTPSGATGSPGSSTPSGATGSPGASPGTSSTGSPGTPGSGTASSSPGSSTPSGATGSPGSSTPSGATGSPGSSTPSGATGSPGSSPSASTGTGPGASPGTSSTGSPGASPGTSSTGSPGTPGSGTASSSPGASPGTSSTGSPGASPGTSSTGSPGASPGTSSTGSPGASPGTSSTGSPGTPGSGTASSSPGSSTPSGATGSPGTPGSGTASSSPGSSTPSGATGSPGTPGSGTASSSPGSSTPSGATGSPGSSTPSGATGSPGSSPSASTGTGPGSSPSASTGTGPGASPGTSSTGSPGTPGSGTASSSPGSSTPSGATGSPGSSPSASTGTGPGSSPSASTGTGPGASPGTSSTGSPGASPGTSSTGSPGSSTPSGATGSPGSSPSASTGTGPGASPGTSSTGSPGSSPSASTGTGPGTPGSGTASSSPGSSTPSGATGSPGSSTPSGATGSPGASPGTSSTGSP
modifications: conjugated
notes: extended recombinant polypeptide of 864 amino acids, AG motif family
B1: the half-life result in data set [1] is reported as “exceeding 60 h”.

B2: AC404: fusion protein of FVII with AE864 (protein)
chain: AVFVTQEEAHGVLHRRRRANAFLEELRPGSLERECKEEQCSFEEAREIFKDAERTKLFWISYSDGDQCASSPCQNGGSCKDQLQSYICFCLPAFEGRNCETHKDDQLICVNENGGCEQYCSDHTGTKRSCRCHEGYSLLADGVSCTPTVEYPCGKIPILEKRNASKPQGRIVGGKVCPKGECPWQVLLLVNGAQLCGGTLINTIWVVSAAHCFDKIKNWRNLIAVLGEHDLSEHDGDEQSRRVAQVIIPSTYVPGTTNHDIALLRLHQPVVLTDHVVPLCLPERTFSERTLAFVRFSLVSGWGQLLDRGATALELMVLNVPRLMTQDCLQQSRKVGDSPNITEYMFCAGYSDGSKDSCKGDSGGPHATHYRGTWYLTGIVSWGQGCATVGHFGVYTRVSQYIEWLQKLMRSEPRPGVLLRAPFPGSPGSPAGSPTSTEEGTSESATPESGPGTSTEPSEGSAPGSPAGSPTSTEEGTSTEPSEGSAPGTSTEPSEGSAPGTSESATPESGPGSEPATSGSETPGSEPATSGSETPGSPAGSPTSTEEGTSESATPESGPGTSTEPSEGSAPGTSTEPSEGSAPGSPAGSPTSTEEGTSTEPSEGSAPGTSTEPSEGSAPGTSESATPESGPGTSTEPSEGSAPGTSESATPESGPGSEPATSGSETPGTSTEPSEGSAPGTSTEPSEGSAPGTSESATPESGPGTSESATPESGPGSPAGSPTSTEEGTSESATPESGPGSEPATSGSETPGTSESATPESGPGTSTEPSEGSAPGTSTEPSEGSAPGTSTEPSEGSAPGTSTEPSEGSAPGTSTEPSEGSAPGTSTEPSEGSAPGSPAGSPTSTEEGTSTEPSEGSAPGTSESATPESGPGSEPATSGSETPGTSESATPESGPGSEPATSGSETPGTSESATPESGPGTSTEPSEGSAPGTSESATPESGPGSPAGSPTSTEEGSPAGSPTSTEEGSPAGSPTSTEEGTSESATPESGPGTSTEPSEGSAPGTSESATPESGPGSEPATSGSETPGTSESATPESGPGSEPATSGSETPGTSESATPESGPGTSTEPSEGSAPGSPAGSPTSTEEGTSESATPESGPGSEPATSGSETPGTSESATPESGPGSPAGSPTSTEEGSPAGSPTSTEEGTSTEPSEGSAPGTSESATPESGPGTSESATPESGPGTSESATPESGPGSEPATSGSETPGSEPATSGSETPGSPAGSPTSTEEGTSTEPSEGSAPGTSTEPSEGSAPGSEPATSGSETPGTSESATPESGPGTSTEPSEGSAPGSSS
B2: in data set [2], the “RH (nm), hydrodynamic radius” value was found to be 10.1 nm; the “Apparent MW (kDa)” value was determined as 1900 kDa; the “Apparent Molecular Weight Factor” value was 14.7.

B3: AC398: fusion protein of FVII with AE288 (protein)
chain: AVFVTQEEAHGVLHRRRRANAFLEELRPGSLERECKEEQCSFEEAREIFKDAERTKLFWISYSDGDQCASSPCQNGGSCKDQLQSYICFCLPAFEGRNCETHKDDQLICVNENGGCEQYCSDHTGTKRSCRCHEGYSLLADGVSCTPTVEYPCGKIPILEKRNASKPQGRIVGGKVCPKGECPWQVLLLVNGAQLCGGTLINTIWVVSAAHCFDKIKNWRNLIAVLGEHDLSEHDGDEQSRRVAQVIIPSTYVPGTTNHDIALLRLHQPVVLTDHVVPLCLPERTFSERTLAFVRFSLVSGWGQLLDRGATALELMVLNVPRLMTQDCLQQSRKVGDSPNITEYMFCAGYSDGSKDSCKGDSGGPHATHYRGTWYLTGIVSWGQGCATVGHFGVYTRVSQYIEWLQKLMRSEPRPGVLLRAPFPGSPGTSESATPESGPGSEPATSGSETPGTSESATPESGPGSEPATSGSETPGTSESATPESGPGTSTEPSEGSAPGSPAGSPTSTEEGTSESATPESGPGSEPATSGSETPGTSESATPESGPGSPAGSPTSTEEGSPAGSPTSTEEGTSTEPSEGSAPGTSESATPESGPGTSESATPESGPGTSESATPESGPGSEPATSGSETPGSEPATSGSETPGSPAGSPTSTEEGTSTEPSEGSAPGTSTEPSEGSAPGSEPATSGSETPGTSESATPESGPGTSTEPSEGSAPGSSS
In the case of B3, in data set [2], the “RH (nm), hydrodynamic radius” value was 8.2 nm; the “Apparent MW (kDa)” value stood at 650 kDa; the “Apparent Molecular Weight Factor” value is recorded as 8.5.

B4: XTEN_AE864: extended recombinant polypeptide of 864 amino acids, AE motif family (protein)
chain: GSPAGSPTSTEEGTSESATPESGPGTSTEPSEGSAPGSPAGSPTSTEEGTSTEPSEGSAPGTSTEPSEGSAPGTSESATPESGPGSEPATSGSETPGSEPATSGSETPGSPAGSPTSTEEGTSESATPESGPGTSTEPSEGSAPGTSTEPSEGSAPGSPAGSPTSTEEGTSTEPSEGSAPGTSTEPSEGSAPGTSESATPESGPGTSTEPSEGSAPGTSESATPESGPGSEPATSGSETPGTSTEPSEGSAPGTSTEPSEGSAPGTSESATPESGPGTSESATPESGPGSPAGSPTSTEEGTSESATPESGPGSEPATSGSETPGTSESATPESGPGTSTEPSEGSAPGTSTEPSEGSAPGTSTEPSEGSAPGTSTEPSEGSAPGTSTEPSEGSAPGTSTEPSEGSAPGSPAGSPTSTEEGTSTEPSEGSAPGTSESATPESGPGSEPATSGSETPGTSESATPESGPGSEPATSGSETPGTSESATPESGPGTSTEPSEGSAPGTSESATPESGPGSPAGSPTSTEEGSPAGSPTSTEEGSPAGSPTSTEEGTSESATPESGPGTSTEPSEGSAPGTSESATPESGPGSEPATSGSETPGTSESATPESGPGSEPATSGSETPGTSESATPESGPGTSTEPSEGSAPGSPAGSPTSTEEGTSESATPESGPGSEPATSGSETPGTSESATPESGPGSPAGSPTSTEEGSPAGSPTSTEEGTSTEPSEGSAPGTSESATPESGPGTSESATPESGPGTSESATPESGPGSEPATSGSETPGSEPATSGSETPGSPAGSPTSTEEGTSTEPSEGSAPGTSTEPSEGSAPGSEPATSGSETPGTSESATPESGPGTSTEPSEGSAP
modifications: conjugated
notes: extended recombinant polypeptide of 864 amino acids, AE motif family
Take B4: in data set [3] (PBS buffer, 7 day incubation at 37° C.), the “degradation in PBS buffer” value is on record as “only minor signs of degradation”. In addition, the “degradation in rat kidney homogenate” value in data set [3] (rat kidney homogenate, 37° C., by the 24 hour interval) was “rapidly degraded”. The “degradation in rat plasma” value in data set [3] (rat plasma, 7 day incubation at 37° C.) was “only minor signs of degradation”. In addition, the “degradation by neutrophil elastase” value in data set [4] (1:100 molar ratio (elastase:XTEN)) is on record as “completely digested”; in data set [4] (1:1000 molar ratio (elastase:XTEN)), “Partial degradation”.

(Values after patent US20180125988A1, “TARGETED XTEN CONJUGATE COMPOSITIONS AND METHODS OF MAKING SAME” (AMUNIX OPERATING INC., priority 2014, published 2018).)
